{"source": "the RNAGym collection of RNA variant scans (doi:10.7554/elife.80360)", "parents": {"B1": {"name": "HDV Ribozyme (parent)", "chain": "GGCCGGCAUGGUCCCAGCCUCCUCGCUGGCGCCGGCUGGGCAACAUUCCGAGGGGACCGUCCCCUCGGUAAUGGCGAAUGGGACCCA"}}, "data": [{"variants_of": "B1", "experiment": "self-cleavage, relative activity (ratio to wild type); higher = more cleavage; co-transcriptional", "values": [{"variant": "GGCCGGCAUGGUCCCAGCCUCCUCGCUGGCGCCGGCUGGGCAACAUUCCGAGGGGAUCGUCCUCUCGGUAAUGGCGAAUGGGACCCA", "note": "[C57U C63U]", "self-cleavage": 0.958}, {"variant": "GGCCGGCAUGGUCCCAGCCUCCUCGCUAGCGCCGGCUGUGCAACAUUCCGAGGGGACCGUCCCCUCGGUAAUGGCGAAUGGGACCCA", "note": "[G28A G39U]", "self-cleavage": 0.0692}, {"variant": "GGACGGCAUGGUCCCAGCCUCUUCGCUGGCGCCGGCUGGGCAACAUUCCGAGGGGACCGUCCCCUCGGUAAUGGCGAAUGGGACCCA", "note": "[C3A C22U]", "self-cleavage": 0.15}, {"variant": "GGCCGGCAUGGUCCCAGCCUCCUCGCUGGCGCCGGCUGGGCAACAUGCCGAGGGGACCGUCCCCUCGGUAAUGGCGAGUGGGACCCA", "note": "[U47G A78G]", "self-cleavage": 1.19}, {"variant": "GGCCGGCAUGGUCCAAGCCUCCUCGCUGGCGCCGGCUGGGCAACAUUGCGAGGGGACCGUCCCCUCGGUAAUGGCGAAUGGGACCCA", "note": "[C15A C48G]", "self-cleavage": 0.475}, {"variant": "GGCCGGCAUGGUCCCAGCCUCCUCGCUGGCGCCGGCUGGUCAACAUUCCGAGGAGACCGUCCCCUCGGUAAUGGCGAAUGGGACCCA", "note": "[G40U G54A]", "self-cleavage": 0.694}, {"variant": "GGCCGGCAUGGUCCCAGCCUCCUCGCAGGCGCCGGCUGGGCAACAUUCCGAGGGGACCGUCCCCUCGGUGAUGGCGAAUGGGACCCA", "note": "[U27A A70G]", "self-cleavage": 0.987}, {"variant": "AGCCGGCAUGGUCCCAGCCCCCUCGCUGGCGCCGGCUGGGCAACAUUCCGAGGGGACCGUCCCCUCGGUAAUGGCGAAUGGGACCCA", "note": "[G1A U20C]", "self-cleavage": 0}, {"variant": "GGCCGGCAUGGUCCCAGCCUCCUCGCUGGCGCCCGCUGGGCAACAUUUCGAGGGGACCGUCCCCUCGGUAAUGGCGAAUGGGACCCA", "note": "[G34C C48U]", "self-cleavage": 0.17}, {"variant": "GGCCGGCAUGGUCCCAGCCUCCUCGCUGGCGCCGGGUGGGCAACAUUCCGAGGGGACCGUCCCCUCGGCAAUGGCGAAUGGGACCCA", "note": "[C36G U69C]", "self-cleavage": 0.155}, {"variant": "GGCCGGCAUGGUCCCAGCCUCCUCGCUGGCGCCGGCUCGGCAACAUUCCGCGGGGACCGUCCCCUCGGUAAUGGCGAAUGGGACCCA", "note": "[G38C A51C]", "self-cleavage": 0.277}, {"variant": "GGCCGGCAUGGUCCCAGCCUCCUCGCUGGCGCCGGCUGGGCAACAUUCCGAGGGGACCGUCCCCUCCGUAAUGGCGAAUGGGACCAA", "note": "[G67C C86A]", "self-cleavage": 0.972}, {"variant": "GGCCGGCAUGGUCCCAGCCUCCUCGCUGGCGCCGGCUGCGCAACAUUCCGAGGGGACCGUCCCCUCGGUAAUGGCGAAUGGGACCCU", "note": "[G39C A87U]", "self-cleavage": 0.229}, {"variant": "GGCCGGCAUGGUCCCAGCCUCCUCGCUGGCGCCGGCUGUGCAACAUUCCGAGGGGACCGUCCCCUCGGUAAUGGCGAAUGGGACCCU", "note": "[G39U A87U]", "self-cleavage": 0.683}, {"variant": "GGGCGGCAUGGUCCCAGCCUCCUCGCUGGCGCCGGCUGGGCAACAUUCCGAGGGGACCGACCCCUCGGUAAUGGCGAAUGGGACCCA", "note": "[C3G U60A]", "self-cleavage": 0.772}, {"variant": "GGCCGGCAUGGUCCCAGCCUCCUCGCUGGCGCCGGCUGGGCAACAUUCCGAGGGGACCGUCUCCUCGCUAAUGGCGAAUGGGACCCA", "note": "[C62U G68C]", "self-cleavage": 0.818}, {"variant": "GGCCGGCAUGGUCCCAGCCUCCUCGCUGGCGCCGGCUGAGCAAGAUUCCGAGGGGACCGUCCCCUCGGUAAUGGCGAAUGGGACCCA", "note": "[G39A C44G]", "self-cleavage": 0.108}, {"variant": "GGCCGGCAUGGUCCCAGCCUCCUCGCUGGCGCCGGCUAGGCAACAUUCCGAGGGGACCGUCCACUCGGUAAUGGCGAAUGGGACCCA", "note": "[G38A C63A]", "self-cleavage": 0.0978}, {"variant": "GGCCGGCAUGGUCCCAGCCUCCUCGCUGGCGCCGGCUUGGCAACAUUCCGAGGGGACCGUCCCCUCGGUAAUGGCGAAUGGGAGCCA", "note": "[G38U C84G]", "self-cleavage": 0.115}, {"variant": "GGCCGGCAUGGUCCCAGCCUCCCCGCUGGCGCCGGCUGGGCAACAUUCCGAGGGGACCGUCCCCUCGGUAAUGGCGAAUGGGACCUA", "note": "[U23C C86U]", "self-cleavage": 0.6}, {"variant": "GGCCGGCAUGGUCCCAGCCUCCUCGCUGGCGCCGGCUGGGCAACAUUCCGAGGGGACUGUGCCCUCGGUAAUGGCGAAUGGGACCCA", "note": "[C58U C61G]", "self-cleavage": 0.967}, {"variant": "GGCCGGCAUGUUCCCAGCCUACUCGCUGGCGCCGGCUGGGCAACAUUCCGAGGGGACCGUCCCCUCGGUAAUGGCGAAUGGGACCCA", "note": "[G11U C21A]", "self-cleavage": 0.0329}, {"variant": "GGCCGGCAUGGUCCCAGCCUACUCGCUGGCGCCGGCUGUGCAACAUUCCGAGGGGACCGUCCCCUCGGUAAUGGCGAAUGGGACCCA", "note": "[C21A G39U]", "self-cleavage": 0.945}, {"variant": "GGCCGGCAUGGUCCCAGCCUCCUCGCUGGCGCCGGCUGGGCAGCAUUCCGAGGGGACCGUCCCCUGGGUAAUGGCGAAUGGGACCCA", "note": "[A43G C66G]", "self-cleavage": 0.404}, {"variant": "CGCCGGCAUGGUCCCAGCCUCUUCGCUGGCGCCGGCUGGGCAACAUUCCGAGGGGACCGUCCCCUCGGUAAUGGCGAAUGGGACCCA", "note": "[G1C C22U]", "self-cleavage": 0.148}, {"variant": "GGCCGGCAUGGUCCCAGCCUCCUUGCUGGCGCCGGCUGGGCAACAUUCCCAGGGGACCGUCCCCUCGGUAAUGGCGAAUGGGACCCA", "note": "[C24U G50C]", "self-cleavage": 0.554}, {"variant": "GGCCGGCAUGGUCCCAGCCUCCUCGCUGGCGCCGGCUGGGCAACAUUCCGAGGGGACCGUCCCCUCGGUAAUGGCGAAGGGCACCCA", "note": "[U79G G82C]", "self-cleavage": 0.119}, {"variant": "GGCCGGCAUGGUCCCAGCCUCCUCGCUGGCGCCGGCUGGGCAACAUUCCGAGGGGAACGUCCCCUCGGUAAUGGCGAAGGGGACCCA", "note": "[C57A U79G]", "self-cleavage": 0.831}, {"variant": "GGCCGGCAUGGUCCCAGCCUCCUCGCUGGCGCCCGCUGGGCAACAUUCCGAGGGCACCGUCCCCUCGGUAAUGGCGAAUGGGACCCA", "note": "[G34C G55C]", "self-cleavage": 0.261}, {"variant": "GGCCGGCAUCGUCCCAGCCUCCUCGCUGGCGCCGGCUGGGCAACAUUCCGAGGGGACCGUCCCGUCGGUAAUGGCGAAUGGGACCCA", "note": "[G10C C64G]", "self-cleavage": 0.997}, {"variant": "GGCCGGCAUGGUCCCAGCCUCCUCGCUGGCGCCGGCUGGGCAACAUUCCGAGGGGACCGUCCCUUCGGUAAUGGCGAAUGGGACCAA", "note": "[C64U C86A]", "self-cleavage": 0.66}, {"variant": "GGCCGGCUUGGUCCCAGCCUCCUCGCUGGCGCCGGCUGGGCAACUUUCCGAGGGGACCGUCCCCUCGGUAAUGGCGAAUGGGACCCA", "note": "[A8U A45U]", "self-cleavage": 0.587}]}]}
